Source: paper doi:10.1101/590273, “The structure of an injectisome export gate demonstrates conservation of architecture in the core export gate between flagellar and virulence type three secretion systems” (bioRxiv, 2019)
Several values for one entry are separate records, joined by “and”; a condition that tells them apart may be missing. Identical values can stand only once.

T1: Shigella flexneri SctT (Spa29) (Shigella flexneri, UniProt P0A1M6 1-256)
T1 construct: Spa29 (SctT), export gate component of the Shigella flexneri virulence type three secretion system; expressed from the complete operon; One copy stands in the complex; not shown: dual-strep tag, C-terminal, kept
T1 sequence: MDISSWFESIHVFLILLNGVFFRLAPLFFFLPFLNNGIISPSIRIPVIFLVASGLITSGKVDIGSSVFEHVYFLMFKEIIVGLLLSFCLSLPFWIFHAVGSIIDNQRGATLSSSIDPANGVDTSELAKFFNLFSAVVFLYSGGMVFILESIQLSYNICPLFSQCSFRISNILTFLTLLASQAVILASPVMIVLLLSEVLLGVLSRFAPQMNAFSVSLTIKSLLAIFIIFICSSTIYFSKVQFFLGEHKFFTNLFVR

T2: Salmonella enterica serovar Typhimurium FliR (Salmonella enterica serovar Typhimurium, UniProt P54702 1-264)
T2 construct: FliR, flagellar export gate component of Salmonella enterica serovar Typhimurium; source: expression of the complete operon
T2 sequence: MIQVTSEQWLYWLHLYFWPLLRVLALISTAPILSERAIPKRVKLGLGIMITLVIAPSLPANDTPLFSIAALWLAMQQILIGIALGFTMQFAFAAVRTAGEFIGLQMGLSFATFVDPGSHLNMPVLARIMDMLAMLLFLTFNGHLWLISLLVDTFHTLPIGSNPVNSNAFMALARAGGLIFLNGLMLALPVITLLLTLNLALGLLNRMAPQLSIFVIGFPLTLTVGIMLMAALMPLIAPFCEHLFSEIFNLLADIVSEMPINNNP

B1: Shigella flexneri SctS (Spa9) (natural protein)
chain: MSDIVYMGNKALYLILIFSLWPVGIATVIGLSIGLLQTVTQLQEQTLPFGIKLIGVSISLLLLSGWYGEVLLSFCHEIMFLIKSGV
notes: Spa9 (SctS), export gate component of the Shigella flexneri virulence type three secretion system; expressed from the complete operon; Two to four copies stand in the complexes seen (SctR5S2T1, SctR5S3T1, SctR5S4T1)
B2: Shigella flexneri SctR (Spa24) (natural protein)
chain: MLSDMSLIATLSFFTLLPFLVAAGTCYIKFSIVFVMVRNALGLQQVPSNMTLNGIALIMALFVMKPIIEAGYENYLNGPQKFDTISDIVRFSDSGLMEYKQYLKKHTDLELARFFQRSEEENADLKSAENNDYSLFSLLPAYALSEIKDAFKIGFYLYLPFVVVDLVISSILLALGMMMMSPITISVPIKLVLFVALDGWGILSKALIEQYINIPA
notes: Spa24 (SctR), export gate component of the Shigella flexneri virulence type three secretion system; expressed from the complete operon; Five copies stand in the SctR5S4T1 complex
B3: Salmonella enterica serovar Typhimurium FliP (natural protein)
chain: QLPGLISQPLAGGGQSWSLSVQTLVFITSLTFLPAILLMMTSFTRIIIVFGLLRNALGTPSAPPNQVLLGLALFLTFFIMSPVIDKIYVDAYQPFSEQKISMQEALDKGAQPLRAFMLRQTREADLALFARLANSGPLQGPEAVPMRILLPAYVTSELKTAFQIGFTIFIPFLIIDLVIASVLMALGMMMVPPATIALPFKLMLFVLVDGWQLLMGSLAQSFYS
notes: FliP, flagellar export gate component of Salmonella enterica serovar Typhimurium; source: expression of the complete operon
B4: Salmonella enterica serovar Typhimurium FliQ (natural protein)
chain: MTPESVMMMGTEAMKVALALAAPLLLVALITGLIISILQAATQINEMTLSFIPKIVAVFIAIIVAGPWMLNLLLDYVRTLFSNLPYIIG
notes: FliQ, flagellar export gate component of Salmonella enterica serovar Typhimurium; source: expression of the complete operon

What was measured:
[1] = molecular target: B2; test: cryo-EM structure; SctRST complex co-expressed from one operon and purified by the strep tag on SctT; 0.01% LMNG in TBS (100 mM Tris, 150 mM NaCl, 1 mM EDTA, pH 8), 8.4 mg/ml; single particle cryoEM, RELION-3, 3.5 Å; further 3D classification gives classes with 2, 3 or 4 SctS; details: both partners purified
[2] = molecular target: T1, Shigella flexneri SctT (Spa29); test: as above; details: both partners purified
[3] = molecular target: the molecule itself; test: cryo-EM structure; re-refinement of the original S. Typhimurium FliPQR data (Kuhlen, Abrusci et al. 2018) in RELION-3 with particle polishing and per-particle CTF refinement, 3.65 Å; coordinates remodeled and re-refined
[4] = molecular target: T2, Salmonella enterica serovar Typhimurium …; test: as above; details: both partners purified

In the case of B1, the binding result [1] is reported as “binds” and the “stoichiometry N” value [2] is reported as 4 and 2 and 3.

B2: binds [2].

B3: binds [3]; binds [4].

B4: binds [4].
